Results on 7 molecules are retold here after patent publication US20210032351A1 (XDCEXPLORER SHANGHAI, published 2021).

Changes are numbered by the printed parent chain.

The target of assay [1] is T1, human EGFRvIII-hFc protein (human, UniProt P00533 25-645).
T1 construct: extracellular domain; made in HEK293 cells, purified on protein A; also called immunogen A; hFc-tagged EGFRvIII protein; not shown: human IgG Fc fragment (hFc) of the pCpC vector
Description: ELISA, coated EGFRvIII-hFc, antibody 0.1 nM. How it is done:
(§1) The purified immunogen A (EGFRvIII-hFc) obtained in example 1 (for the preparation method, see step (I) in example 1) is diluted with PBS to a final concentration of 1.0 μg/mL, and then added to a 96-well ELISA plate at 100 μl/well. The plate is sealed with a plastic film and incubated at 4° C. overnight. The next day, the plate is washed twice with a plate washing solution [PBS+0.01% (v/v) Tween20], and added with a blocking solution [PBS+0.01% (v/v) Tween20+1% (w/w) BSA] for blocking 2 hours at room temperature. The blocking solution is discarded, and the purified EGFRvIII antibody obtained in example 2 is added at 100 μl/well. The plate is incubated for 2 hours at 37° C., and then washed 3 times with the plate washing solution [PBS+0.01% (v/v) Tween20]. The plate is added with an HRP (horseradish peroxidase) labeled secondary antibody (purchased from Sigma), incubated at 37° C. for 2 hours, and then washed 3 times with the plate washing solution [PBS+0.01% (v/v) Tween20]. The plate is added with 100 μl of TMB substrate/well, incubated for 30 minutes at room temperature, and then added with 100 μl of stopping solution (1.0N HCl)/well. A450 nm value is read using an ELISA plate reader (SpectraMax 384plus, purchased from Molecular Device), and the results are shown in FIG. 6 and table 10.
A general note: ELISA stands for enzyme-linked immunosorbent assay.

Assay [2] concerns the target T1, human EGFRvIII-hFc protein. As to the kind of experiment: ELISA, coated EGFRvIII-hFc, antibody 100 nM. Here is the method:
as §1

Assay [3] has as its target T1, human EGFRvIII-hFc protein. Description: ELISA, coated EGFRvIII-hFc, antibody 10 nM. Here is the method: as §1
In assay [4] the target is T1, human EGFRvIII-hFc protein. Description: ELISA, coated EGFRvIII-hFc, antibody 0.01 nM. Here is the method: as §1
Assay [5] addresses T1, human EGFRvIII-hFc protein. Description: ELISA, coated EGFRvIII-hFc, antibody 1 nM. How it is done:
as §1

For assay [6], the target named is T1, human EGFRvIII-hFc protein. As to the kind of experiment: ELISA, coated EGFRvIII-hFc, antibody 0.0001 nM. Here is the method:
as §1

Assay [7] addresses T1, human EGFRvIII-hFc protein. As to the kind of experiment: ELISA, coated EGFRvIII-hFc, antibody 0.001 nM. Here is the method:
as §1

In assay [8] the target is T2, human EGFR protein (wild-type), on cells (human, UniProt P00533 25-1210).
T2 construct: whole, on cells; transfected on CHO-K1 cells; endogenous on the human cell lines; the cell is named under assay; also called wild-type EGFR; hEGFR
As to the kind of experiment: FACS on U87MG and HEB cells. Here is the method:
The collected cells are suspended to 2×10⁶ cells/mL with an FACS buffer (HBSS+1% BSA, with the percentage being the mass percentage), added to a 96-well FACS reaction plate at 100 μL/well, then added with 100 μL/well of the purified EGFRvIII antibody (samples to be tested) obtained in example 2, and incubated on ice for 2 hours. The plate is centrifugally washed twice with the FACS buffer, added with 100 μL/well of a fluorescence (Alexa 488) labeled secondary antibody (purchased from Invitrogen), and then incubated on ice for 1 hour. The plate is centrifugally washed 3 times with the FACS buffer, added with 100 μL/well of a fixing solution [4% (v/v) paraformaldehyde] for suspending the cells, and centrifugally washed twice with the FACS buffer after 10 minutes. The cells are suspended in 100 μL of the FACS buffer, and the results are detected and analyzed by FACS (FACS Calibur, purchased from BD). Data analysis is performed by using the software (CellQuest) to obtain the mean fluorescence intensity (MFI) of the cells. Data is further analyzed by using the software (GraphPad Prism5) to perform data fitting and calculate EC50. […] A431 cells (human epidermal cell cancer cell lines) have a large amount of wild-type EGFR protein expressed on the surface thereof. […] U87MG cells (human glioma cell lines) have a small amount of wild-type EGFR protein expressed on the surface thereof, while HEB cells (human glioma cell lines) have a high level of wild-type EGFR protein expression on the surface thereof.

B1: Murine anti-53D8 (antibody, V domains shown)
VH: QVQLQQSGAELARPGASVKMSCKASGYTFTSYTMHWVKQRPGQGLEWIGYINPSSGYTKYNQIFKDKATLTADKSSSTAYMQLSSLTSEDSAVYYCTRGGGRGFAYWGQGTLVTVSA
VL: DILMTQSPSSMSVSLGDTVSITCHASQDINSNIGWLQQKPGKSFKGLIYHGTNLEDGVPSRFSGSGSGADYSLTISSLESEDFADYYCVQYAQFPFTFGSGTKLEIK
notes: murine hybridoma antibody; also called 53D8H4
B1: the OD450 nm came out at 0.64 in assay [1]; 3.72 in assay [2]; 3.69 in assay [3]; 0.16 in assay [4]; 3.2 in assay [5]; 0.09 in assay [6]. In assay [7], this molecule registered an OD450 nm of 0.1. Besides, the binding result in assay [8] is given as “no binding”.

B2: Murine anti-64B11 (antibody, V domains shown)
VH: EVQLQQSGAELVKPGASVKLSCTASGFNIKDYYMHWVKQRTEQGLEWIGRIDPEDGETKYAPKFQGKATITADTSSNTAYLQLSNLPSEDTAVYYCGCRTGGFAYWGQGTLVTVSA
VL: B1 VL with D28G, G46A, K103E
notes: murine hybridoma antibody; also called 64B11F2
Consider B2, for which the OD450 nm in assay [1] was found to be 0.24; in assay [2] it was 3.64; in assay [3], 3.63; in assay [4] it was 0.09; in assay [5], 1.58; in assay [6] it was 0.08. In assay [7], this molecule yielded an OD450 nm of 0.08. The binding result in assay [8] is reported as “no binding”.

B3: Murine anti-56F10 (antibody, V domains shown)
VH: B2 VH with Y32F, N85S, P87T
VL: QIVLTQSPAIMSASPGEKVTMTCSASSSVSYLYWYQQKPGSSPSLLIYDTSNLASGVPVRFSGSGSGTSYSLTISRMEAEDAATYYCQQWSRNPWTFGGGTKLEIK
notes: murine hybridoma antibody; also called 56F10G2
B3: the OD450 nm in assay [1] was 0.18; in assay [2], 3.61; in assay [3], 3.53; in assay [4], 0.11; in assay [5], 0.98; in assay [6], 0.09. For the same molecule, in assay [7], the OD450 nm was found to be 0.1. Also, the binding result in assay [8] is reported as “no binding”.

B4: Murine anti-59G3 (antibody, V domains shown)
VH: DVQLQESGPGLVKPSQSLSLTCSVTGYSITSGYYWHWIRQFPENKLEWMGYISYDGSNIYNPSLKNRISITRDTSKNQFFLKLNSVTTEDTATYYCAINSDYALDYWGQGTSVTVSS
VL: B3 VL with L32M, S44R, R92S, N93Y, P94S, W95L, G99A, I105L
notes: murine hybridoma antibody; also called 59G3F12
For the molecule B4, the OD450 nm was 0.49 in assay [1]; 3.71 in assay [2]; 3.67 in assay [3]; 0.13 in assay [4]; 2.68 in assay [5]; 0.08 in assay [6]. Moreover, in assay [7], the OD450 nm is 0.08. For the same molecule, the binding result in assay [8] was “no binding”.

B5: Murine anti-49G12 (antibody, V domains shown)
VH: EVQLLQSGAELVKPGASVKLSCTASGFNIKDYYMHWVKQRTEQGLEWIGRIDPEDGETKYAPKFQGKATMTADTSSNTAYLQLSSLTSEDTAVYYCASSAYYGRNYWGQGTTLTVSS
VL: QIVLTQSPAIMSASPGEKVTLTCSASSSLSSSYLYWYQQKPGSSPKLWIYSTSNLASGVPARFSGSGSGTSYSLTISSMEAEDAASYFCHQWSSYPYTFGGGTKLEIK
notes: murine hybridoma antibody; also called 49G12G5
In the case of B5, the OD450 nm worked out at 0.64 in assay [1]; 3.79 in assay [2]; 3.8 in assay [3]; 0.14 in assay [4]; 3.2 in assay [5]; 0.08 in assay [6]. This molecule displayed an OD450 nm in assay [7] of 0.13. Besides, the binding result in assay [8] is “no binding”.

B6: Murine anti-51G7 (antibody, V domains shown)
VH: B5 VH with L5Q, Y32F, M34I, G66D, M70I, T71I, A100S, R104N
VL: B5 VL with L29V, S32N, Y95F
notes: murine hybridoma antibody; also called 51G7C2
For the molecule B6, the OD450 nm worked out at 0.46 in assay [1]; 3.68 in assay [2]; 3.69 in assay [3]; 0.15 in assay [4]; 2.44 in assay [5]; 0.08 in assay [6]. In assay [7], this molecule displayed an OD450 nm of 0.09. In addition, the binding result in assay [8] is given as “no binding”.

B7: Murine anti-46C4 (antibody, V domains shown)
VH: EVHLQQSVAELVRPGASVKLSCTASGFNIKNTYMHWVKQRPEQGLEWIGRIDPANGNTKYAPKFQGKATITADTSSNTAYLQLSSLTSEDTAIYYCASDFDYWGQGTTLTVSS
VL: DVLMTQTPLSLPVSLGDQVSISCRSSQSIVNSNGNTHLEWYLQKPGQSPKVLIYKVSKRFSGVPDRFSGSGSGTDFTLKISRVEAEDLGVYYCFQGSHVPYTFGGGTKLEIK
notes: murine hybridoma antibody; also called 46C4A6
Turning to B7, the OD450 nm in assay [1] is 0.72; in assay [2], 3.83; in assay [3], 3.85; in assay [4], 0.15; in assay [5] it was 3.5; in assay [6] it was 0.08. Further, in assay [7], the OD450 nm turned out to be 0.09. Also, the binding result in assay [8] is “no binding”.
